From paper PMC8313811 (Current Research in Structural Biology, 2021)

Columns and labels:
cryo-EM structure = molecular target: the molecule itself; assay: cryo-EM structure
SEC = molecular target: the molecule itself; assay: SEC

Protein | stoichiometry N (cryo-EM structure) | binding result (SEC)
M. marinum EspB2-286 (domain or fragment) SQPQTVTVDQQEILNRADEVEAPMATPPTDVPQAPSGLTAANNAAEQLAVSADNVRLYLQAGERERQRLATSLRNAAAAYGEVEDESATALDNDGNGEVDAQSAGGAGAGQTESLEETPKVAAAGESDFTDLKTAATKLESGDQGTSMVNFADGWNNFNLSLQRDIKRFRIFENWEGDAATACEASMDQQKEWILHMAKLSASLAKQANFMAQLQLWARRGHPTLADIVELERLAKDPDYQEQAIKLYAEYQETSEKVLSEYNTKADLEPVNPPKPPAAIKIDPP | 7 | –
M. tuberculosis EspB (residues 2-358), mature form (domain or fragment) TQSQTVTVDQQEILNRANEVEAPMADPPTDVPITPCELTAAKNAAQQLVLSADNMREYLAAGAKERQRLATSLRNAAKAYGEVDEEAATALDNDGEGTVQAESAGAVGGDSSAELTDTPRVATAGEPNFMDLKEAARKLETGDQGASLAHFADGWNTFNLTLQGDVKRFRGFDNWEGDAATACEASLDQQRQWILHMAKLSAAMAKQAQYVAQLHVWARREHPTYEDIVGLERLYAENPSARDQILPVYAEYQQRSEKVLTEYNNKAALEPVNPPKPPPAIKIDPPPPPQEQGLIPGFLMPPSDGSGVTPGTGMPAAPMVPPTGSPGGGLPADTAAQLTSAGREAAALSGDVAVKAA | – | binds
M. tuberculosis EspB2-287 (domain or fragment) TQSQTVTVDQQEILNRANEVEAPMADPPTDVPITPCELTAAKNAAQQLVLSADNMREYLAAGAKERQRLATSLRNAAKAYGEVDEEAATALDNDGEGTVQAESAGAVGGDSSAELTDTPRVATAGEPNFMDLKEAARKLETGDQGASLAHFADGWNTFNLTLQGDVKRFRGFDNWEGDAATACEASLDQQRQWILHMAKLSAAMAKQAQYVAQLHVWARREHPTYEDIVGLERLYAENPSARDQILPVYAEYQQRSEKVLTEYNNKAALEPVNPPKPPPAIKIDPP | 7 | –
